# Laboratory results: patent US20060171955A1
# Experiments:
# monoclonal antibody 1129 [1] = test: competitive ELISA; soluble 248/404 F inhibits 1129 binding to plate-adsorbed A2 F
# monoclonal antibody 1129 [2] = test: competitive ELISA; soluble 248/404 F inhibits 1129 binding to plate-adsorbed 248/404 F
# monoclonal antibody 1129 [3] = test: competitive ELISA; soluble A2 F inhibits 1129 binding to plate-adsorbed A2 F
# monoclonal antibody 1129 [4] = test: competitive ELISA; soluble A2 F inhibits 1129 binding to plate-adsorbed 248/404 F
Substance,Percent Inhibition (monoclonal antibody 1129 [1]),Percent Inhibition (monoclonal antibody 1129 [2]),Percent Inhibition (monoclonal antibody 1129 [3]),Percent Inhibition (monoclonal antibody 1129 [4])
"purified RSV fusion (F) protein from the cold-passaged, temperature-sensitive mutant A2 strain cpts-248/404 (PFP-3) (from UniProt P03420 26-574)",94.7%,95.9%,,
purified RSV fusion (F) protein from the parent A2 strain (PFP-2) (from UniProt P03420 26-574),,,> 99%,> 99%
